Biological target: His6:ΔIBB-IMPORTIN-α2 (Arabidopsis thaliana (Mouse-ear cress), UniProt F4JL11)
Assay: analytical SEC

Chain of His6:ΔIBB-IMPORTIN-α2 (F4JL11 75-535, stated change not applied): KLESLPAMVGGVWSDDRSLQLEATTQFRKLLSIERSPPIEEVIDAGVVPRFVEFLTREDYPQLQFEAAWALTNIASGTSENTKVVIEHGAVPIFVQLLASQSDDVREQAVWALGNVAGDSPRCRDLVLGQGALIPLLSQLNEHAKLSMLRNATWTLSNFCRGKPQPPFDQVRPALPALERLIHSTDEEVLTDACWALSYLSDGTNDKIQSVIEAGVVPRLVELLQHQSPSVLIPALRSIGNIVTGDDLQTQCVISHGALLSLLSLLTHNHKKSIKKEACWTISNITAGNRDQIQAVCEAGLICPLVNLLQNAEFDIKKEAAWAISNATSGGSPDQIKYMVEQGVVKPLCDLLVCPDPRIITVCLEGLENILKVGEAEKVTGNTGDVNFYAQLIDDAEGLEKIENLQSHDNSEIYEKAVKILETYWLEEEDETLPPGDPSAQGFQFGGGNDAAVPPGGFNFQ

binding result: no binding
B1: His6:SUMO:SAP (protein)
chain: MANKLKVDELRLKLAERGLSTTGVKAVLVERLEEAIAEDTKKEESKSKRKRNSSNDTYESNKLIAIGEFRGMIVKELREEAIKRGLDTTGTKKDLLERLCNDANN

— publication PMC6230994 (2018)
